Data on two molecules can be found in paper doi:10.1101/2020.10.28.360099 (bioRxiv, 2020).

In data set [1] the target is recombinant jack bean conA precursor (pro-conA) (Canavalia ensiformis (jack bean)). In words: crystal structure.
Data set [2] deals with the molecule itself. The experiment in a line: crystal structure.

On to “recombinant jack bean conA precursor (pro-conA) (natural protein)”, for which the stoichiometry N (in general, a count of units in the complex or per binding partner) in data set [1] worked out at 2.

B1: jack bean asparaginyl endopeptidase 1 (CeAEP1) (enzyme, Canavalia ensiformis (jack bean), UniProt P49046 36-475, looked up)
chain: EVGTRWAVLVAGSNGYGNYRHQADVCHAYQLLIKGGVKEENIVVFMYDDIAYNAMNPRPGVIINHPQGPDVYAGVPKDYTGEDVTPENLYAVILGDKSKVKGGSGKVINSNPEDRIFIFYSDHGGPGVLGMPNAPFVYAMDFIDVLKKKHASGGYKEMVIYIEACESGSIFEGIMPKDLNIYVTTASNAQENSFGTYCPGMNPPPPEEYVTCLGDLYSVSWMEDSETHNLKRETVQQQYQSVRKRTSNSNSYRFGSHVMQYGDTNITAEKLYLYHGFDPATVNFPPHNGNLEAKMEVVNQRDAELLFMWQMYQRSNHQPEKKTHILEQITETVKHRNHLDGSVELIGVLLYGPGKSSSVLHSVRAPGLPLVDDWTCLKSMVRVFETHCGSLTQYGMKHMRAFGNVCNSGVSKASMEEACKAACGGYDAGLLYPSNTGYSA
modifications: succinimide intermediate (SNN) modelled at Asp157
B1: the “stoichiometry N” value in data set [2] turned out to be 2.
